Laboratory results from paper doi:10.1101/2023.10.27.564484, “Insights into Molecular Diversity within the FET Family: Unraveling Phase Separation of the N-Terminal Low Complexity Domain from RNA-Binding Protein EWS” (bioRxiv, 2023).
Positions count from the first letter of the chain named. Names and notes keep the numbering of the source. One block for each molecule: values may come before it.

Legend:
[1] = biological target: EWS^LCD,7YS (UniProt Q01844); test: pelleting assay (phase separation); details: 50 µM protein, 150 mM NaCl, 20 mM Tris pH 7.4; parent: est. 0.36; read off a plot
[2] = biological target: EWS^LCD,13YS (UniProt Q01844); test: pelleting assay (phase separation); details: 50 µM protein, 150 mM NaCl, 20 mM Tris pH 7.4; parent: est. 0.36; read off a plot
[3] = biological target: the molecule itself; test: turbidity (phase separation) with brightfield imaging; stock diluted into 20 mM Tris buffer with varied protein, NaCl, pH or temperature in microwell plates; absorbance and brightfield images of droplets
[4] = biological target: the molecule itself; test: co-sedimentation; pelleting of condensates: stock in CAPS pH 11 diluted into 20 mM Tris pH 7.4-7.5, 150 mM NaCl, 18,000 g for 15 min at room temperature, A280 of the supernatant; protein 25-400 µM, mutants at 50 µM

other: fraction soluble [1]: 0.92
Molecule: EWS low-complexity domain (N-terminal 264 residues of RNA-binding protein EWS) (from UniProt Q01844) 7YS

other: fraction soluble [2]: 1
Molecule: EWS low-complexity domain (N-terminal 264 residues of RNA-binding protein EWS) (from UniProt Q01844) 13YS

B1: EWS low-complexity domain (N-terminal 264 residues of RNA-binding protein EWS) (domain or fragment)
chain: GAMASTDYSTYSQAAAQQGYSAYTAQPTQGYAQTTQAYGQQSYGTYGQPTDVSYTQAQTTATYGQTAYATSYGQPPTGYTTPTAPQAYSQPVQGYGTGAYDTTTATVTTTQASYAAQSAYGTQPAYPAYGQQPAATAPTRPQDGNKPTETSQPQSSTGGYNQPSLGYGQSNYSYPQVPGSYPMQPVTAPPSYPPTSYSSTQPTSYDQSSYSQQNTYGQPSSYGQQSSYGQQSSYGQQPPTSYPPQTGSYSQAPSQYSQQSSSYGQQ
notes: two residue (Gly, Ala) cloning scar left after TEV cleavage; not included in the numbering; 15N-enriched in the intermolecular PRE experiment; unlabelled in turbidity and pelleting assays; also called EWS^LCD; EWS LCD; source: E. coli BL21 DE3 Star, purified (IMAC in urea, TEV cleavage, second IMAC, SEC); not shown: His8, N-terminal, cleaved
binding result [3]: binds

B2: EWS^LCD Y44S (domain or fragment)
chain: B1 chain with Y46S
notes: two residue (Gly, Ala) cloning scar left after TEV cleavage; not included in the numbering; source: E. coli BL21 DE3 Star, purified (IMAC, TEV cleavage, SEC); not shown: His8, N-terminal, cleaved
binding result [4]: binds

B3: EWS^LCD,Y170S/Y172S (domain or fragment)
chain: B1 chain with Y172S, Y174S
notes: two residue (Gly, Ala) cloning scar left after TEV cleavage; not included in the numbering; also called Y170/Y172S; source: E. coli BL21 DE3 Star, purified (IMAC, TEV cleavage, SEC); not shown: His8, N-terminal, cleaved
binding result [3]: binds

B4: EWS^LCD Y172S (domain or fragment)
chain: B1 chain with Y174S
notes: as for B2
binding result [4]: binds

B5: EWS^LCD Y208S (domain or fragment)
chain: B1 chain with Y210S
notes: as for B2
binding result [4]: binds
